For this experiment, the system named is K. pneumoniae 8570ΔcpsBLux (O2). The experiment can be described thus: Opsonophagocytic killing (OPK) assay, O2 capsule mutant. Type of experiment: cell-based, Klebsiella pneumoniae. More on the design: key to D Capsule OPK O2: +++: Strongly positive activity; +: Positive activity; +/−: Somewhat positive depending upon the test conditions. As to conditions: capsule mutant strain 8570ΔcpsB lux (O2). The gist of the method: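 Luminescent capsule-deficient K. pneumoniae strains were mixed with DMF-differentiated HL-60 cells, 1:10 baby rabbit serum and anti-O2 LPS mAbs (2 ng–2.5 μg/mL), then shaken for 2 h at 37 °C. Killing % came from luminescence (RLU) against no-antibody and negative-control mAb wells, with >40% scored as positive.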

B1: KPN179: Class III anti-O2 antigen human mAb; VH SEQ ID NO: 53, VL SEQ ID NO: 54 (antibody, V domains shown)
VH: EVQVVESGGGLVKPGGSLRLSCAASGFTFNNAWMNWVRQAPGKGLEWVGRIKRKADGETTDYPASVKGRFTVSRDDSKNTIYLQMNSLKTEDTAIYYCTTRIVTTNDYWGQGTLVTVSS
VL: QSALTQPPSVSGSPGQSVTISCTGTSSDVGYYDYVSWYQQHHPGKAPKHMIYDVNKRPSGVPDRFSGSKSGNTASLTISGLQAEDEADYYCCSYAGGDTFVFGTGTKVTVL
modifications: Description of Artificial Sequence: SyntheticKPN179 VH polypeptide; Description of Artificial Sequence: SyntheticKPN179 VL polypeptide
As for B1, the “D Capsule OPK O2” value was “+++”.

The record behind these values is patent publication US12312397B2, “Anti-O2 antibodies and uses thereof” (priority 2016, dated 2025).
